Experimental data as given in KR20220134462A (dated 2022).
Where a chain is given by its changes, count along the chain named.

T1: MCF-7 세포주의 세포막에 발현된 B7-H3 (UniProt Q5ZPR3 29-534)
T1 construct: whole, on cells; Endogenous B7-H3 of the MCF-7 cell line; also called MCF-7 cell
T1 sequence (looked up): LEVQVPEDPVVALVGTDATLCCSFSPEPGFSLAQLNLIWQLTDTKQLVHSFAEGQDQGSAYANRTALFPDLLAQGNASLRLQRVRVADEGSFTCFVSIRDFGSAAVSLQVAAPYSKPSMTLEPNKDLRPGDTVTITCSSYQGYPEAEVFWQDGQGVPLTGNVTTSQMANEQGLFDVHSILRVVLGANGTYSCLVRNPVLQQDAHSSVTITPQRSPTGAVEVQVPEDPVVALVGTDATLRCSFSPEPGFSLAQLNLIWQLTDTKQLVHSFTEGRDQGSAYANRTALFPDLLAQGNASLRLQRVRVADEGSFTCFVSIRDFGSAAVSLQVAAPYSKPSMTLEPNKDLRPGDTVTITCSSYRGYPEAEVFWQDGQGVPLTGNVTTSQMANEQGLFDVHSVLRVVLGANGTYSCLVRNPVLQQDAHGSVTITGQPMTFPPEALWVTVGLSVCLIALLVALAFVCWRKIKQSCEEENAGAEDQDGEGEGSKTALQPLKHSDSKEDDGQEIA

B1: #3 항체 (B7-H3 항체) (antibody, V domains shown)
VH: EVQLLESGGGLVQPGGSLRLSCAASGFTFSTYYMTWVRQAPGKGLEWVSIINPRGGSTSYAEKFQGRFTISRDNSKNTLYLQMNSLRAEDTAVYYCARWNLGMDVWGQGTLVTVSS
VL: EIVLTQSPGTLSLSPGERATLSCRVSQSISSYLNWYQQKPGQAPRLLIYDASHRATGIPDRFSGSGSGTDFTLTISRLEPEDFAVYYCQQYYAPSVTFGQGTKVEIK
B2: #5 항체 (B7-H3 항체) (antibody, V domains shown)
VH: EVQLLESGGGLVQPGGSLRLSCAASGFTFSTYAMSWVRQAPGKGLEWVSAISGSGGSTLYADSVKGRFTISRDNSKNTLYLQMNSLRAEDTAVYYCARGGSATWAFDLWGQGTLVTVSS
VL: QSVLTQPPSASGTPGQRVTISCSGSSSNIGSNYVYWYQQLPGTAPKLLIYRNNQRPSGVPDRFSGSKSGTSASLAISGLRSEDEADYYCGTWDSSLSGVVFGGGTKLTVL
B3: #2 항체 (B7-H3 항체) (antibody, V domains shown)
VH: EVQLLESGGGLVQPGGSLRLSCAASGFTFSAYYMIWVRQAPGKGLEWVSITNPSGGVTSYAQKFQGRFTISRDNSKNTLYLQMNSLRAEDTAVYYCARVGGRGFDIWGQGTLVTVSS
VL: EIVLTQSPGTLSLSPGERATLSCHASQGISNYVAWYQQKPGQAPRLLIYDASNRATGIPDRFSGSGSGTDFTLTISHLEPEDFAVYYCQQSYSTLLTFGQGTKVEIK
B4: #8 항체 (B7-H3 항체) (antibody, V domains shown)
VH: EVQLLESGGGLVQPGSSLRLSCAASGFTFSSYWISWVRQAPGKGLEWVSEISPSGNTNYNPSLKSRFTISRDNSKNTLYLQMNSLRAEDTAVYYCAREVGDLLDYWGQGTLVTVSS
VL: QSVLTQPPSASGTPGQRVTISCSGSNIGNNYVSWYQQLPGTAPKLLIYQDSKRPSGVPDRFSGSKSGTSASLAISGLRSEDEADYYCLVWDRSSDHFVFGGGTKLTVL
B5: #7 항체 (B7-H3 항체) (antibody, V domains shown)
VH: EVQLLESGGGLVQPGGSLRLSCAASGFTFSNFWIGWVRQAPGKGLEWVSWINPPGSITSYADSVKGRFTISRDNSKDTLYLQMNSLRAEDTAVYYCAREVGDVLDYWGQGTLVTVSS
VL: QSVLTQPPSASGTPGQRVTISCTGTSSDIGRYNYVSWYQQLPGTAPKLLIYRNTQRPSGVPDRFSGSKSGTSASLAISGLRSEDEADYYCGTWDSSLNAYVFGGGTKLTVL
B6: #6 항체 (B7-H3 항체) (antibody, V domains shown)
VH: EVQLLESGGGLVQPGGSLRLSCAASGFTFSTYAISWVRQAPGKGLEWVSSIYYSGYTHYNPSLESRFTISRDNSKNTLYLQMNSLRAEDTAVYYCARGYSGWMDVWGQGTLVTVSS
VL: QSVLTQPPSASGTPGQRVTISCGGNNIGSKSVHWYQQLPGTAPKLLIYDNNKRPSGVPNRFSGSKSGTSASLAISGLRSEDEADYYCAAWDDSLNVPVFGGGTKLTVL
B7: #9 항체 (B7-H3 항체) (antibody, V domains shown)
VH: EVQLLESGGGLVQPGGSLRLSCAASGFTFSSYAMNWVRQAPGKGLEWVSTISGSGGQTYYADSVKGRFTISRDNSKNTLYLQMNSLRAEDTAVYYCARWRSIWAFDYWGQGTLVTVSS
VL: B6 VL with G23S, G24D, N59D, A88G, A89T, N95S, V96G
B8: #1 항체 (B7-H3 항체) (antibody, V domains shown)
VH: EVQLLESGGGLVQPGGSLRLSCAASGFTFSSYAMSWVRQAPGKGLEWVSTITGSGGSTYYADSVKGRFTISRDNSKNTLYLQMNSLRAEDTAVYYCARYKSGAFDIWGQGTLVTVSS
VL: EIVLTQSPGTLSLSPGERATLSCRASQGIGNYLGWYQQKPGQAPRLLIYTASSLQSGIPDRFSGSGSGTDFTLTISRLEPEDFAVYYCQQGYSTPSWTFGQGTKVEIK
B9: #4 항체 (B7-H3 항체) (antibody, V domains shown)
VH: EVQLLESGGGLVQPGGSLRLSCAASGFTFSSYGMHWVRQAPGKGLEWVSAISGSGTSIYYANSVKSRFTISRDNSKNTLYLQMNSLRAEDTAVYYCARGAGWFDYWGQGTLVTVSS
VL: QSVLTQPPSASGTPGQRVTISCSGSTSNIGSNTVNWYQQLPGTAPKLLIYGKNIRPNGVPDRFSGSKSGTSASLAISGLHSEDEADYYCQSYDSSLSGWVFGGGTKLTVL

target: T1, MCF-7 세포주의 세포막에 발현된 B7-H3; assay: cell ELISA on fixed MCF-7 cells (표 2)

| Binder | EC50 |
| --- | --- |
| B1 | 197 pM |
| B2 | 1740 pM |
| B3 | 61 pM |
| B4 | 159 pM |
| B5 | 1010 pM |
| B6 | 234 pM |
| B7 | 322 pM |
| B8 | 605 pM |
| B9 | 502 pM |

target: RKO/B7H3 세포주에 과발현된 B7-H3 (UniProt Q5ZPR3); assay: cell ELISA on fixed RKO/B7H3 cells (표 3)

| Binder | EC50 |
| --- | --- |
| B1 | 65 pM |
| B2 | 91 pM |
| B3 | 36 pM |
| B4 | 60 pM |
| B5 | 187 pM |
| B6 | 65 pM |
| B7 | 50 pM |
| B8 | 15 pM |
| B9 | 42 pM |
